From the RNAGym collection of RNA variant scans (doi:10.7554/elife.90254)

B1: OR4K15 (parent)
chain: GUUAACGGUCAUAGGCCAUGGAAACUAGGAGCACCAUUUCGCUGCCAGUGAAGAAAUGAACAAAGAAAAUCUGGGCCAGGCAGGCAUCAAAAGAAAUAGUCUUGCGCUCAACCAGAAAGUCUGUAAUCAUUUUAAGGGUA

Variants of: B1
Assay: self-cleavage, relative activity (ratio to wild type); higher = more cleavage; in vitro, sequencing; the parent is a self-cleaving ribozyme

Compared with GUUAACGGUCAUAGGCCAUGGGAACUAGGAGCACCAUUUCGCUGCCAGUGAAGAAAUGAACAAAGAAAAUCUGGGCCAGGCAGGCACCAAAAGAAAUAGUCUUGCGCUCAACCAGAAAGUCUGUAAUCAUUUUAAGGGUA, GCUAACGGUCAUAGGCCAUGGAAACUAGGAGCACCAUUUCGCUGCCAGUGAAGAAAUGAACAAAGAAAAUCUGGGCCAGGCAGGCAUCAAAAGAAAUAGUCUUGCGCUCAACCAGAAAGUCUGUAAUCAUUUCAAGGGUA is lower in self-cleavage: 1.28 for the first, 0.71 for the second.

Compared with GUUAACGGUCAUAGGCCAUGGAAACUAGGAGCCCCAUUUCGCUGCUAGUGAAGAAAUGAACAAAGAAAAUCUGGGCCAGGCAGGCAUCAAAAGAAAUAGUCUUGCGCUCAACCAGAAAGUCUGUAAUCAUUUUAAGGGUA, GUUAACGGUCAUAGGCCAUGGAAACUAGGAGCACCAUUUCACUGCCAGUGAAGAAAUGAACAAAGAAAAUCUGGGCCAGGCAGGCAUCAAAAGAAAUAGUCUUGCGCUCAACCAGAAAGUCGGUAAUCAUUUUAAGGGUA is higher in self-cleavage: 1.3 for the first, 1.51 for the second.

First: GUUAACGGUCAUAGGCCAUGGAAACUAGGAGCUCCAUUUCGCUGCCAGUGAAGAAAUGAACAAAGAAAAUCUGGGCCAGGCAGGCGUCAAAAGAAAUAGUCUUGCGCUCAACCAGAAAGUCUGUAAUCAUUUUAAGGGUA
Second: GUUAACGGUCAUAGGCCAUGGAAACUAGGAGCACCAUUUCGCUGCCAGUGAAGAAAUGAACAAAGAAAAUCUUGGCCAGGCAGGCAUCAAAAGAAAUAGUCUUGCGCUCAACCAGGAAGUCUGUAAUCAUUUUAAGGGUA
The self-cleavage of the first is higher: 1.33 for the first, 0.11 for the second.

Going from GUUAACGGUCAUAGGCCAUGGAAACUAGGAGCACCAUUUCGCUGCCAGUGAAGAAAUGAACAUAGAAAAUCUGGGCCAGGCAGGCAUCAAAAGAAAUAGUCUCGCGCUCAACCAGAAAGUCUGUAAUCAUUUUAAGGGUA to GUUAACGGUCAUAGGCCAUGGAAACUAGGAGCACCGUUUCGCUGCCAGUGAAGAAAUGAACUAAGAAAAUCUGGGCCAGGCAGGCAUCAAAAGAAAUAGUCUUGCGCUCAACCAGAAAGUCUGUAAUCAUUUUAAGGGUA, the self-cleavage rises from 1.58 to 2.06.

Going from GUUAACGGUCAUAGGCCAUGGAAACUGGGAGCACCAUUUCGCUGCCAGUAAAGAAAUGAACAAAGAAAAUCUGGGCCAGGCAGGCAUCAAAAGAAAUAGUCUUGCGCUCAACCAGAAAGUCUGUAAUCAUUUUAAGGGUA to GUUAACGGUCAUAGGCCAUGGAAACUAGGAACACCAUUUCGCUGCCAGUGAAGAAAUGAACAAAGAAAAUCUGGGCCAGGCUGGCAUCAAAAGAAAUAGUCUUGCGCUCAACCAGAAAGUCUGUAAUCAUUUUAAGGGUA, the self-cleavage falls from 2.45 to 0.14.

Compared with GUUAACAGUCAUAGGCCAUGGAAACUAGGAGCACCAUUUCGCUGCCAGUGAAGAAAUGAACAAAGAAAAUCUGGGCCAGGCAGGCAUCAAAAGAAAUAGUCUUGCGCUCAACCAGAAAGUCUGUAAUCAUUUUAAGGGUA, GUUAACGGUCAUAGGCCAUGGGAACUAGGAGCACAAUUUCGCUGCCAGUGAAGAAAUGAACAAAGAAAAUCUGGGCCAGGCAGGCAUCAAAAGAAAUAGUCUUGCGCUCAACCAGAAAGUCUGUAAUCAUUUUAAGGGUA is lower in self-cleavage: 1.65 for the first, 1.2 for the second.

First: GAUAACGGUCAUAGGCCAUGGAAACUAGGAGCACCAUUUCGCUGCCAGUGAGGAAAUGAACAAAGAAAAUCUGGGCCAGGCAGGCAUCAAAAGAAAUAGUCUUGCGCUCAACCAGAAAGUCUGUAAUCAUUUUAAGGGUA
Second: GAUAACGGUCAUAGGCCAUGGAAACUAGGAGCACCAUUUCGCUGCCAGCGAAGAAAUGAACAAAGAAAAUCUGGGCCAGGCAGGCAUCAAAAGAAAUAGUCUUGCGCUCAACCAGAAAGUCUGUAAUCAUUUUAAGGGUA
The self-cleavage of the first is lower: 0.8 for the first, 1.68 for the second.

Compared with GUUAAUGGUCAUAGGCCAUGGAAACUAGGAGCACCAUUUCGCUGCCAGUGAAGAAAUGAACAAAGAAAAUCUGGGCCAGGCAGGCAUCAAAAGAAGUAGUCUUGCGCUCAACCAGAAAGUCUGUAAUCAUUUUAAGGGUA, GUUAACGGUCAUAGGCCAUGGAAACUAGGAGCACCAUUUCGCUGCCAGUGAAGAAAUGAACAAAGAAAAUCCGGGCCAGGCAGGCAUCUAAAGAAAUAGUCUUGCGCUCAACCAGAAAGUCUGUAAUCAUUUUAAGGGUA is lower in self-cleavage: 1.1 for the first, 0.45 for the second.

Compared with GUUAACGGUCAUAGGCCAUGGAAACUAGGAGCACCAUUACGCUGCCGGUGAAGAAAUGAACAAAGAAAAUCUGGGCCAGGCAGGCAUCAAAAGAAAUAGUCUUGCGCUCAACCAGAAAGUCUGUAAUCAUUUUAAGGGUA, GUUAACGGUCAUAGGCCAUGGAAACUAGGAGCACCAUUUCGCUGCCAGUGAAGAAAUGAACAGAGAAAAUCUGGGCCAGGCAGGCAUCAAUAGAAAUAGUCUUGCGCUCAACCAGAAAGUCUGUAAUCAUUUUAAGGGUA is higher in self-cleavage: 0.44 for the first, 2.36 for the second.

Going from GUUAACGGUCAUAGGCCAUGGAAACUAGGAGCACCAUUUCGCUGCCAGUGAAGAAAUGAACAGAGAAAAUCUGGGCCAGGCAGGCAUCAAAAGAAGUAGUCUUGCGCUCAACCAGAAAGUCUGUAAUCAUUUUAAGGGUA to GUUAACGGUCAUAGGCCAUGGAAACUAGGAGCGCCAUUUCGCUGCCAGUGAAGAAAUGAACAAAGAAAAUCUGGGCCAGGCAGGCAUCAAAAGAAAAAGUCUUGCGCUCAACCAGAAAGUCUGUAAUCAUUUUAAGGGUA, the self-cleavage falls from 1.4 to 1.18.

Going from GUUAACGGUCAUAGGCCUUGGAAGCUAGGAGCACCAUUUCGCUGCCAGUGAAGAAAUGAACAAAGAAAAUCUGGGCCAGGCAGGCAUCAAAAGAAAUAGUCUUGCGCUCAACCAGAAAGUCUGUAAUCAUUUUAAGGGUA to GUUAACGGUCAUAGGCCAUGGAAACUAGGAGCACCAUUUCGCUGCCAGUGAAGAAAUGGACAAAGAAAAUCUGGGCCAGGCAGGCAUCAAAAGAAAUAGUCUUGCGCUCAACCAGAACGUCUGUAAUCAUUUUAAGGGUA, the self-cleavage falls from 1.31 to 0.9.

Going from GUUAACGGUCAUAGGCCAUGGAAACUAGGAGCACCAUUUCGCUGCCAGUGAAGAAAUGAACAAAGAAAAACUGGGCCAGGCAGGCAUCAAAAGAAAUAGUCUCGCGCUCAACCAGAAAGUCUGUAAUCAUUUUAAGGGUA to GUUAACGGUCAUAGGCCAUGGAAACUAGGAGCACCAUUCCGCUGCCAGUGAAGAAAUGAACAAAGAAAAUCUGGGCCAGGCAGGCAUCAAAAGAAAUAGUCUUGCGCUCACCCAGAAAGUCUGUAAUCAUUUUAAGGGUA, the self-cleavage falls from 0.68 to 0.01.

First: GUUAACGGUCAUAGGCCAUGGAAACUAGGAGCACCGUUUCGCUGCCAGUGAAGAAAUGAACAAAGAAAAUCUGGGCCAGGCAGGCAUCAAAAGAAAUAGUCUUGCGCUCAACCAGAAAGACUGUAAUCAUUUUAAGGGUA
Second: GUUAACGGUCAUAGGCCAUGGAAACUAGGAGCGCCAUUUCGCUGCCAGUGAAGAAAUGAACAAAGAAAAUCUGGGCCAGGCAGGCAUCAAAAGAAAUAGUCUUGCGCUCAACCAGAAAGUCUGUAACCAUUUUAAGGGUA
The self-cleavage of the first is higher: 2.61 for the first, 0.23 for the second.

Compared with GUUAACGGUCAUAGGCCAUGGAAACUAGGAGCACCAUUUCGCUGCCAGUGAAGAAAUGAACAAAGAAAAUCUGGGACAGGCAGGCAUCAAAAGAAAUAGUCUUACGCUCAACCAGAAAGUCUGUAAUCAUUUUAAGGGUA, GUUAACGGUCAUAGGCCAUGGAAACUAGGUGCACCAUUUCGCUGCCAGUGAAGAAAUGAACAAAGAAAAUCUGGGCCAGGCAGGCAUCAAAAGAAAUAGUCUUGCGCUCAACCAGAAAGUCUGUGAUCAUUUUAAGGGUA is higher in self-cleavage: 0.03 for the first, 0.5 for the second.

Going from GUUAACGGUCAUAGGCCAUGGAAACUAGGAGCACCAUUUCGCUGCCAGGGAAGAAAUGAACUAAGAAAAUCUGGGCCAGGCAGGCAUCAAAAGAAAUAGUCUUGCGCUCAACCAGAAAGUCUGUAAUCAUUUUAAGGGUA to GUUAACGGUCAUAGGCCAUGGAAACUAGGAGCACAAUUUCGCUGCCAGUGAAGAAAUGAACAAAGAAAAUCUGGGCCAGGCAGGCAUCAAGAGAAAUAGUCUUGCGCUCAACCAGAAAGUCUGUAAUCAUUUUAAGGGUA, the self-cleavage rises from 0.74 to 1.42.

First: GUUAACGGUCAUAGGCCAUGGAAACUAGGAGCACCAUUUCGCUGCCGGUGAAGAAAUGAACAAAGAAAAUCUGGGCCAGGCAGGCGUCAAAAGAAAUAGUCUUGCGCUCAACCAGAAAGUCUGUAAUCAUUUUAAGGGUA
Second: GUUAACGGUCAUAGGCCAUGGAAACUAGGAGCACCAUUUCGCUGCCAGUGGAGAAAUGAACAAAGAAAAUCUGGGCCAGGCAGGCAUCAAAAGAAAUAGUCUUGCGCUCAACCAGAAAGUCUGUAAUCAUUCUAAGGGUA
The self-cleavage of the first is higher: 1.25 for the first, 0.81 for the second.

First: GUUAACGGUCAUAGGCCAUGGAAACUAGGAGCACCAUUUCGCUGCCAGUGAAGAAAUGAACAAAGAAAAUCUAGGCCAGGCAGGCAUCCAAAGAAAUAGUCUUGCGCUCAACCAGAAAGUCUGUAAUCAUUUUAAGGGUA
Second: GUUAACGGUCAUAGGCCAUGGAAACUAGGAGCACCAUUUCGCUGCCAGUGAAGAAAUGAACAAAGAAAAUCUGGGCCAGGCAGGCAUCAAAAGAAAUAGUCUUGCGCUCAACCAGAAGGUCCGUAAUCAUUUUAAGGGUA
The self-cleavage of the first is lower: 0.14 for the first, 1.04 for the second.

Going from GUUAACGGUUAUAGGCCAUGGAAACUAGGAGCACCAUUUCGCUGCCAGUGAAGAAAUGAACAAAGAAAAUCUGGGCCGGGCAGGCAUCAAAAGAAAUAGUCUUGCGCUCAACCAGAAAGUCUGUAAUCAUUUUAAGGGUA to GUUAACGGUCAUAGGCCAUGGAAACUAGGAGCACCAUUUCGCUGCCAGUGAGGAAAUGAACAAAGAAAAUCUGGGCCAGGCAGGCAUCAGAAGAAAUAGUCUUGCGCUCAACCAGAAAGUCUGUAAUCAUUUUAAGGGUA, the self-cleavage rises from 0.1 to 0.99.

Compared with GUUAAUGGUCAUAGGCCAUGGAAACUAGGAGCACCAUUUCGCUGCCAGUGAAGAAAUGAACAAAGAAAAUCUGGGCCAGGCAGGCAUCAAAAGAAAUAGUCUUGCGCUCAACCAGAAGGUCUGUAAUCAUUUUAAGGGUA, GUUAACGGUCAUAGGCCAUGGAAAUUAGGAGCACCAUUUCGCUGCCAGUGAAGAAAUGAACAAAGAAAAUCUGGGCCAGGCAGGCAUCAAAAGAAAUAGCCUUGCGCUCAACCAGAAAGUCUGUAAUCAUUUUAAGGGUA is higher in self-cleavage: 1.06 for the first, 2.01 for the second.

Compared with GUUAACGGUCAUAGGCCAUGGAAACUAGGAGCACCAUUUCGCUGCCAGUGAAGAAAUGAGCAAAGAAAAUCUGGGCCAGGCAGGCAUCAAAAGAAUUAGUCUUGCGCUCAACCAGAAAGUCUGUAAUCAUUUUAAGGGUA, GUUAACGGUCAUAGGCCAUGGAAACUAGGAGCACCAUUUCGCUGCCAGUGCAGAAAUGAACAAAGAAAAUCUCGGCCAGGCAGGCAUCAAAAGAAAUAGUCUUGCGCUCAACCAGAAAGUCUGUAAUCAUUUUAAGGGUA is lower in self-cleavage: 1.96 for the first, 0 for the second.

Work on GUUAACGGUCAUAGGCCGUGGAAACUAGGAGCACCAUUUCGCUGCCAGUGAAGAAAUGAACAAAGAAAAUCAGGGCCAGGCAGGCAUCAAAAGAAAUAGUCUUGCGCUCAACCAGAAAGUCUGUAAUCAUUUUAAGGGUA yielded a self-cleavage of 0.37.
